From patent US20240390520A1, “GENE EDITING OF PCSK9 OR ANGPTL3 AND COMPOSITIONS AND METHODS OF USING SAME FOR TREATMENT OF DISEASE” (Verve Therapeutics, Inc., priority 2021, published 2024)

Test system: OT1 site
Test: Off-target OT1 editing, MessengerMax transfection in PHH, Targeted Amplicon sequencing
Assay type: cell-based, human
Settings: PHH lot STL, MessengerMax with mRNA MA079, 5,000 and 2,500 ng/mL total RNA
Experimental: The genomic DNA from PHH cells transfected with one of 20 sgRDNA spacer sequence variants were also tested for off-target editing percentage by targeted amplicon sequencing (FIGS. 31-32). The genomic DNA samples assessed were from cells that received doses of the total RNA of 5,000 ng/mL and 2,500 ng/mL. OT1 primer (GA0100_OT_B2) was used to measure editing percentage (A>G) in position 1-10 of the OT1 site (Table. 4). Technical replicates were performed.
Table. […] VEP Gene and VEP Consequence refer to the genomic location and functional role of OT1 as determined by the Ensembl Variant Effect Predictor (VEP) tool v98.3. […] The CADD score was determined using the Combined Annotation-Dependent Depletion v1.6 (CADD) framework, which aims to annotate and interpret human genetic variation through the integration of diverse annotations into a single measure. […] To bioinformatically assess the potential for oncogenesis due to editing at the off-target site, it was assessed whether OT1 is located within a gene in the Cancer Gene Census of the Catalogue of Somatic Mutations in Cancer (COSMIC) v92; it is not. […]

B1: GA690: ANGPTL3 sgRDNA spacer sequence variant with minimally modified tracrRNA (nucleic acid)
guide: AAGATACCTGAATAACCCTCGTTTTAGAGCTAGAAATAGCAAGTTAAAATAAGGCTAGTCCGTTATCAACTTGAAAAAGTGGCACCGAGTCGGTGCTTTT
modifications: DNA-containing spacer with minimally modified tracrRNA, spacer pattern not given here
- off-target editing (A>G) at OT1, positions 1-10: indeed edited at OT1
